The record followed here is US20200299384A1 (published 2020).

Read-outs that look alike come from different tables or passages of the source.

The target in assay [1] is T1, Human CD3 Gamma (CD3gamma) protein (human, UniProt P09693 23-116).
T1 construct: extracellular domain; Bought protein
Kind of assay: ELISA, antigen coated on plate. (An ELISA detects its analyte on a solid surface through an enzyme-linked reagent.)

Assay [2] has as its target T2, Human CD3 delta (CD3 delta) protein (His Tag) (human, UniProt P04234 22-105).
T2 construct: extracellular domain; Bought protein; not shown: His tag
Kind of assay: ELISA, antigen coated on plate.

Assay [3] has as its target T3, mouse CD3epsilon protein (mouse, UniProt P22646 22-108, limits assumed). The assay can be described thus: ELISA, antigen coated on plate.
In assay [4] the target is T4, Human CD3 epsilon (CD3epsilon) protein (His Tag) (human, UniProt P07766 23-126).
T4 construct: extracellular domain; Bought protein; also called recombinant human CD3epsilon ECD; not shown: His tag
T4 sequence (P07766 23-126): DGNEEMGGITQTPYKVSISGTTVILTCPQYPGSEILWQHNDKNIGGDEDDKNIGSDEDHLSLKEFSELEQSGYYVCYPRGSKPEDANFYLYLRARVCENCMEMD
The assay can be described thus: ELISA, antigen coated on plate.

In assay [5] the target is T5, Cynomolgus Monkey CD3 epsilon protein (Cynomolgus monkey, UniProt Q95LI5 22-117).
T5 construct: Bought protein; also called Cyno-Monkey CD3epsilon
T5 sequence (looked up): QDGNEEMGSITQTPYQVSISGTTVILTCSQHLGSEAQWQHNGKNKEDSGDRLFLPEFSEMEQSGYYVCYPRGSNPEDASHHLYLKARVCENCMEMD
The assay can be described thus: ELISA, antigen coated on plate.

Assay [6] has as its target T3, mouse CD3epsilon protein. Kind of assay: ELISA, antigen coated on plate. This is another data set of the same source.
In assay [7] the target is T4, Human CD3 epsilon (CD3epsilon) protein …. Kind of assay: ELISA, antigen coated on plate. This is another data set of the same source.
For assay [8], the target named is T5, Cynomolgus Monkey CD3 epsilon protein. Kind of assay: ELISA, antigen coated on plate. This is another data set of the same source.
For assay [9] the target is unchanged. Kind of assay: ELISA, antigen coated on plate. The source holds these as a separate data set.
Assay [10] addresses T6, human CD3 expressed on cells (Jurkat cells; human CD4 T cells) (human, UniProt P07766 23-207).
T6 construct: whole, on cells; also called human CD3 receptor on T cell surface; human CD3 expressing cells (Jurkat cells)
Kind of assay: flow cytometry on Jurkat cells. On the procedure:
Various concentrations of testing mAbs were added to Jurkat cells, and then the binding activity of mAbs onto the surface of cells was detected by 2nd antibody-FITC. OKT3 was used as the positive control. The stained cells were analyzed by using a BD Biosciences FACSCanto II instrument and Flow Jo Version software. The binding EC₅₀ were calculated by using GraphPad Prism software equation: Nonlinear regression (curve fit)—log (agonist) vs. response-Variable slope.
In general terms: A flow cytometer gives signals particle by particle.

Assay [11] deals with T6, human CD3 expressed on cells (Jurkat …). Kind of assay: flow cytometry on human CD4 T cells.
Assay [12] shares this target. The assay can be described thus: flow cytometry on Jurkat cells, one site saturation fit. Details: Best fit-Bmax: unit not given here.
In assay [13] the target is T4, Human CD3 epsilon (CD3epsilon) protein …. The assay can be described thus: ELISA, antigen coated on plate, HRP-labelled 2nd antibody. On the procedure:
(§1) Human CD3epsilon, CD3delta and CD3gamma proteins were pre-coated in 96-well plates, respectively. The binding affinity of eight mAbs at various concentrations to these three different CD3 protein extracellular domain was detected by corresponding HRP labeled 2nd antibodies. The binding EC₅₀ (concentration of the test antibody when reaching half maximum binding) were analyzed by using GraphPad Prism software equation: Nonlinear regression (curve fit)—log (agonist) vs. response-Variable slope.

For assay [14], the target named is T1, Human CD3 Gamma (CD3gamma) protein. The description is as above. On the procedure:
as §1

Assay [15] deals with T2, Human CD3 delta (CD3 delta) protein …. Described as above. How it is done:
as §1

T3 sequence (P22646 22-108 limits assumed): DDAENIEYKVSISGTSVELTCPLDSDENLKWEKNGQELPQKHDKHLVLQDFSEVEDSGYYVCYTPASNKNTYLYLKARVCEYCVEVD
T1 sequence (P09693 23-116): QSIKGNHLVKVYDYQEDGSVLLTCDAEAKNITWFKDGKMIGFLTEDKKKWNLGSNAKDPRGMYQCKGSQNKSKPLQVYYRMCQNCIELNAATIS
T6 sequence (P07766 23-207): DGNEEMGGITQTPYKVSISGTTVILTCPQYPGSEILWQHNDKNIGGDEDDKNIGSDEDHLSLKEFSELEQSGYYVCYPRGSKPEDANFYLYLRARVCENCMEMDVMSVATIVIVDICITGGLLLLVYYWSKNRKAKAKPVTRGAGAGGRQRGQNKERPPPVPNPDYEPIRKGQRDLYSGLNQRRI
T2 sequence (P04234 22-105, stated change not applied): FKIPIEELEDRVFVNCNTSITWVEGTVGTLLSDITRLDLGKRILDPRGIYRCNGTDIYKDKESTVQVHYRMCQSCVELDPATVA

B1: WBP3311_2.166.48 (antibody, IgG2a, V domains shown)
VH: QVQLQQSGPELVKPGASVKIACKASGYSFTTYYIHWVKQRPGQGLEWIGWIFPGNDNIKYSEKFKGKATLTADTSSSTAYMQLSSLTSEDSAVYFCAIDSVSIYYFDYWGQGTTLTVSS
VL: DIVMSQSPSSLAVSAGEKVTMSCKSSQSLLNSRTRKNYLAWYQQKPGQSPKLLIYWASTRKSGVPDRFTGSGSGTDFTLTINSVQAEDLAVYYCTQSFILRTFGGGTKLEIK
notes: Mouse monoclonal antibody from hybridoma; also called W3311-2.166.48; W3311_2.166.48
By EC50 is commonly meant the concentration giving half of the maximal effect. As usually defined, the Kd is the equilibrium constant for the complex coming apart. Consider B1, for which the binding result (in assay [1]; in [2]; with mouse CD3epsilon protein [3]) was “no binding” throughout. Further, the “ELISA (A450)” value in assay [4] came to 2.76 A450; in assay [5], 2.81 A450; with mouse CD3epsilon protein [6] it was 0.446 A450; in [13] it was 1.64 A450; in [14] it was 0.05 A450; in assay [15], 0.05 A450. The EC50 in assay [7] worked out at 0.049 nM; in [8], 0.033 nM; in assay [9] it was 0.125 nM; in assay [10] it was 6.91 nM; in assay [11], 3.51 nM. Besides, the “MFI (FACS)” value in [10] was determined as 2140 MFI. In addition, the “Best fit-Bmax” value in assay [12] was found to be 1.26e-10. Moreover, in [12], binding was characterised by a dissociation constant (Kd) of 1.67 nM.

B2: WBP3311_2.615.8 (antibody, V domains shown)
VH: QVQLQQSGPELVKPGTSMKISCKASGYSFTDFYTHWVRQRPGQGLEWIGWIFPGSDNIKYNEKFKGKATLTADTSSSTAYMQLSSLTSEDSAVYFCARDSVSVYYFDYWGQGTTLTVSS
VL: DIVMSQSPSSLAVTAGEKVTMSCKSSQSLLNIRTRKNYLAWYQQKPGQSPKLLIYWASTRDSGVPDRFTGSGSGTDFTLTISSVQAEDLAVYYCTQSFILRTFGGGTKLEIK
notes: Mouse monoclonal antibody from hybridoma; also called W3311-2.615.8
In the case of B2, the binding result (in [1]; in assay [2]; with mouse CD3epsilon protein [3]) was “no binding” each time. The “ELISA (A450)” value in assay [4] was 2.82 A450; in assay [5], 2.71 A450; with mouse CD3epsilon protein [6], 0.471 A450; in [13] it was 1.55 A450; in assay [14], 0.05 A450; in [15] it was 0.05 A450. Moreover, the EC50 in assay [7] was 0.033 nM; in assay [8], 0.025 nM; in assay [10] it was 4.65 nM. In [10], the “MFI (FACS)” value is 2220 MFI. Besides, the “Best fit-Bmax” value in assay [12] is 1.2e-10. The molecule also registered a Kd in assay [12] of 2.23 nM.
